B1: BTN2A1 ID271 (protein)
chain: KLQKEKKILSGEKEFERETREIALKELEKERVQKEEELQVKEKLQEELRWRRTFLHAVDVVLDPDTAHPDLFLSEDRRSVRRCPFRHLGESVPDNPERFDSQPCVLGRESFASGKHYWEVEVENVIEWTVGVCRDSVERKGEVLLIPQNGFWTLEMHKGQYRAVSSPDRILPLKESLCRVGVFLDYEAGDVSFYNMRDRSHIYTCPRSAFSVPVRPFFRLGCEDSPIFICPALTGANGVTVPEEGLTLHRVGTHQSL
modifications: HMBPP
B2: BTN2A1 ID271 (protein)
chain: B1 chain
modifications: 4-M-HMBPP

Molecular target: BTN3A1 full intracellular domain (BFI) (Homo sapiens, UniProt O00481)
Test: ITC

Chain of BTN3A1 full intracellular domain (BFI) (O00481 272-513): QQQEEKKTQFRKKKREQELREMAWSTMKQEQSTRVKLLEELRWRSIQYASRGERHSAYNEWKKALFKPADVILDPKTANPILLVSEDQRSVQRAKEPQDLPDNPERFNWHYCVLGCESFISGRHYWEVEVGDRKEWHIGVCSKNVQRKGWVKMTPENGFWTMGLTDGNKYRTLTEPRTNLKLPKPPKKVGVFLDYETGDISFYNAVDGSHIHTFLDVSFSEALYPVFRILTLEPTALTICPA

Binder | Kd [µM]
B1 | 0.78
B2 | 190
